Patent US20110086089

How the values were obtained:
[1] = target: p27.Pi-S83, p27 pre-phosphorylated in vitro by CK2-alpha-prime at S83
[2] = target: p27.Pi-S83/T187, p27 pre-phosphorylated in vitro by CK2-alpha-prime at S83 and T187
[3] = target: p27.Pi-T187, p27 pre-phosphorylated in vitro by CK2-alpha-prime at T187
[4] = target: p27.S83A (recombinant, His-tagged)
[5] = target: p27.T187A (recombinant, His-tagged)
[6] = target: p27deltaPi (p27.S83A/T187A; recombinant, His-tagged)
[7] = target: phosphomimicking mutant p27.S83D/T187D (recombinant, His-tagged)
Chain of phosphomimicking mutant p27.S83D/T187D (recombinant, His-tagged) (chain, as listed by the source S83D T187D): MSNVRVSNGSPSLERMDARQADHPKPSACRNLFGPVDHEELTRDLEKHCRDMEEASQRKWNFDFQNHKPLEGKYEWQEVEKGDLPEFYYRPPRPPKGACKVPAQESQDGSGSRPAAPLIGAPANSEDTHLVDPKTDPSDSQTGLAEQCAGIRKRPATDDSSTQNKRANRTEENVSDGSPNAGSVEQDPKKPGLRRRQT

[8] = target: recombinant His-tagged wt.p27

Chain of p27deltaPi (p27.S83A/T187A; recombinant, His-tagged) (chain, as listed by the source S83A T187A): as the sequence (chain, as listed by the source S83D T187D) above, with D83A, D187A counted along it
Chain of p27.Pi-T187, p27 pre-phosphorylated in vitro by CK2-alpha-prime at T187 (chain, as listed by the source): as the sequence (chain, as listed by the source S83D T187D) above, with D83A, D187T counted along it
Chain of p27.S83A (recombinant, His-tagged) (chain, as listed by the source S83A): as the sequence (chain, as listed by the source S83D T187D) above, with D83A, D187T counted along it

| Protein | recombinant CK2-alpha-prime activity in vitro (32P incorporated into histone H1) [1] | recombinant CK2-alpha-prime activity in vitro (32P incorporated into histone H1) [2] | recombinant CK2-alpha-prime activity in vitro (32P incorporated into histone H1) [3] | reduction in phosphorylation by CK2-alpha-prime [4] | reduction in phosphorylation by CK2-alpha-prime [5] | phosphorylation of p27 in in vitro kinase reactions (32P incorporated into p27) [6] | recombinant CK2-alpha-prime activity in vitro (32P incorporated into histone H1) [7] | phosphorylation of p27 in in vitro kinase reactions (32P incorporated into p27) [8] | recombinant CK2-alpha-prime activity in vitro (32P incorporated into histone H1) [8] |
| --- | --- | --- | --- | --- | --- | --- | --- | --- | --- |
| recombinant active His-tagged CK2-alpha-prime/beta (protein) chain 1: MPGPAAGSRARVYAEVNSLRSREYWDYEAHVPSWGNQDDYQLVRKLGRGKYSEVFEAINITNNERVVVKILKPVKKKKIKREVKILENLRGGTNIIKLIDTVKDPVSKTPALVFEYINNTDFKQLYQILTDFDIRFYMYELLKALDYCHSKGIMHRDVKPHNVMIDHQQKKLRLIDWGLAEFYHPAQEYNVRVASRYFKGPELLVDYQMYDYSLDMWSLGCMLASMIFRREPFFHGQDNYDQLVRIAKVLGTEELYGYLKKYHIDLDPHFNDILGQHSRKRWENFIHSENRHLVSPEALDLLDKLLRYDHQQRLTAKEAMEHPYFYPVVKEQSQPCADNAVLSSGLTAAR chain 2: not shown | an incremental loss of p27 inhibitory activity towards CK2-alpha-prime when compared to wt.p27 | Simultaneous phosphorylation of S83/T187 in p27.Pi-S83/T187 or introducing phosphomimicking mutations in p27.S83D/T187D abolished the ability of p27 to inhibit CK2-alpha-prime | an incremental loss of p27 inhibitory activity towards CK2-alpha-prime when compared to wt.p27 | The S83A and T187A point mutants exhibited a 68% and 27% reduction in phosphorylation by CK2-alpha-prime, respectively | The S83A and T187A point mutants exhibited a 68% and 27% reduction in phosphorylation by CK2-alpha-prime, respectively | CK2-alpha-prime failed to phosphorylate p27deltaPi containing double-substituted mutations (S83A/T187A) | Simultaneous phosphorylation of S83/T187 in p27.Pi-S83/T187 or introducing phosphomimicking mutations in p27.S83D/T187D abolished the ability of p27 to inhibit CK2-alpha-prime | Wt.p27 was phosphorylated by CK2-alpha-prime | Wt.p27 completely inhibited recombinant CK2-alpha-prime activity in vitro |
| catalytically-inactive kinase-dead CK2-alpha-prime (kd.CK2-alpha-prime), K69M (protein) MPGPAAGSRARVYAEVNSLRSREYWDYEAHVPSWGNQDDYQLVRKLGRGKYSEVFEAINITNNERVVVMILKPVKKKKIKREVKILENLRGGTNIIKLIDTVKDPVSKTPALVFEYINNTDFKQLYQILTDFDIRFYMYELLKALDYCHSKGIMHRDVKPHNVMIDHQQKKLRLIDWGLAEFYHPAQEYNVRVASRYFKGPELLVDYQMYDYSLDMWSLGCMLASMIFRREPFFHGQDNYDQLVRIAKVLGTEELYGYLKKYHIDLDPHFNDILGQHSRKRWENFIHSENRHLVSPEALDLLDKLLRYDHQQRLTAKEAMEHPYFYPVVKEQSQPCADNAVLSSGLTAAR |  |  |  |  |  |  |  | Wt.p27 was phosphorylated by CK2-alpha-prime but not catalytically-inactive kinase-dead CK2-alpha-prime (kd. CK2-alpha-prime) |  |
